Data on 6 molecules can be found in patent publication US20170306033A1 (Amgen, published 2017).

One experiment has as its target T1, human PAC1 receptor (human, UniProt P41586 21-468).
T1 sequence: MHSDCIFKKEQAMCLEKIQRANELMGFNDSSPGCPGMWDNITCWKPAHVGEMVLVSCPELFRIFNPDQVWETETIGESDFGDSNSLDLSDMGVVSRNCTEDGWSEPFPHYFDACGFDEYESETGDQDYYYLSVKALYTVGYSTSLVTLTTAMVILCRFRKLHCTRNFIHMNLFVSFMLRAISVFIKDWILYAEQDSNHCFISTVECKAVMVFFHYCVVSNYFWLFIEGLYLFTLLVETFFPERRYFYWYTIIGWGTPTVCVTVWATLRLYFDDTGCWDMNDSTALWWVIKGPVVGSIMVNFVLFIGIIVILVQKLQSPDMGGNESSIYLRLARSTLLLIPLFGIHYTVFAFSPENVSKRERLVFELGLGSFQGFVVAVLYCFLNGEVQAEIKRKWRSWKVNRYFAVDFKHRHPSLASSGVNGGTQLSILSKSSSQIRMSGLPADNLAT
Put plainly: cell-based or functional assay.

The target of a further experiment is human CGRP receptor (human, UniProt Q16602 23-461; O60894 27-148). Put plainly: cell-based or functional assay.
human CGRP receptor, sequence (Q16602 23-461 limits assumed, chain 1 of 2): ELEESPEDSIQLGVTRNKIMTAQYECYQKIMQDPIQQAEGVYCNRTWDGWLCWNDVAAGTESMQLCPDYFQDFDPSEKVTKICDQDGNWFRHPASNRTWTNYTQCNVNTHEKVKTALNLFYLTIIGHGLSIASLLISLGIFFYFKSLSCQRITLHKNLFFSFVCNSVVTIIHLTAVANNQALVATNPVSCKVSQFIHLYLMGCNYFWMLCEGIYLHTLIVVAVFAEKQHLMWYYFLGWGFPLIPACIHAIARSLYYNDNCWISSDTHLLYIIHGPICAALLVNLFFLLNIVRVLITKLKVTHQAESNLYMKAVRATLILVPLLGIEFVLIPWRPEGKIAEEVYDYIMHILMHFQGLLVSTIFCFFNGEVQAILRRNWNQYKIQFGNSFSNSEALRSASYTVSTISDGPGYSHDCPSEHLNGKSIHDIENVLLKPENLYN
human CGRP receptor, sequence (O60894 27-148 limits assumed, chain 2 of 2): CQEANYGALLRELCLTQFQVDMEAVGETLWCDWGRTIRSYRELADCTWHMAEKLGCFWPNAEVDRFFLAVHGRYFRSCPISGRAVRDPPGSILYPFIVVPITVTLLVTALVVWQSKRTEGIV

B1: iPS:326631 (bispecific antibody, human IgG2, kappa, lambda)
light 1: not shown
heavy 1: QVQLQQSGPGLVKPSQTLSLTCAISGDSVSSNSATWNWIRQSPSRGLEWLGRTYYRSKWSNHYAVSVKSRITINPDTSKSQFSLQLNSVTPEDTAVYYCARGTWKQLWFLDHWGQGTLVTVSSASTKGPSVFPLAPCSRSTSESTAALGCLVKDYFPEPVTVSWNSGALTSGVHTFPAVLQSSGLYSLKSVVTVPSSNFGTQTYTCNVDHKPSNTKVDKTVERKCCVECPPCPAPPVAGPSVFLFPPKPKDTLMISRTPEVTCVVVDVSHEDPEVQFNWYVDGVEVHNAKTKPREEQFNSTFRVVSVLTVVHQDWLNGKEYKCKVSNKGLPAPIEKTISKTKGQPREPQVYTLPPSREEMTKNQVSLTCLVDGFYPSDIAVEWESNGQPENNYDTTPPMLDSDGSFFLYSDLTVDKSRWQQGNVFSCSVMHEALHNHYTQKSLSLSPGK
light 2: not shown
heavy 2: not shown
B1: in the experiment with human PAC1 receptor, the “% inhibition of human PAC1” value worked out at 79%. Besides, the “% inhibition of human CGRPR” value with human CGRP receptor was found to be 89%.

B2: iPS:327290 (bispecific antibody, human IgG1, kappa, lambda, N297G)
light 1: DIQLTQSPSFLSASVGDRVTITCRASQSIGRSLHWYQQKPGKAPKLLIKYASQSLSGVPSRFSGSGSGTEFTLTISSLQPEDFATYYCHQSSRLPFTFGPGTKVDIKRTVAAPSVFIFPPSDEQLKSGTASVVCLLNNFYPREAKVQWKVDNALQSGNSQESVTEQDSKDSTYSLESTLTLSKADYEKHKVYACEVTHQGLSSPVTKSFNRGEC
heavy 1: not shown
light 2: QSVLTQPPSVSAAPGQKVTISCSGSSSNIGNNYVSWYQQLPGTAPKLLIYDNNKRPSGIPDRFSGSKSGTSTTLGITGLQTGDEADYYCGTWDSRLSAVVFGGGTKLTVLGQPKANPTVTLFPPSSEELQANKATLVCLISDFYPGAVTVAWKADGSPVKAGVETTKPSKQSNNKYAAKSYLSLTPEQWKSHRSYSCQVTHEGSTVEKTVAPTECS
heavy 2: QVQLVESGGGVVQPGRSLRLSCAASGFTFSSFGMHWVRQAPGKGLEWVAVISFDGSIKYSVDSVKGRFTISRDNSKNTLFLQMNSLRAEDTAVYYCARDRLNYYDSSGYYHYKYYGMAVWGQGTTVTVSSASTKGPSVFPLAPSSKSTSGGTAALGCLVKDYFPEPVTVSWNSGALTSGVHTFPAVLQSSGLYSLESVVTVPSSSLGTQTYICNVNHKPSNTKVDKKVEPKSCDKTHTCPPCPAPELLGGPSVFLFPPKPKDTLMISRTPEVTCVVVDVSHEDPEVKFNWYVDGVEVHNAKTKPCEEQYGSTYRCVSVLTVLHQDWLNGKEYKCKVSNKALPAPIEKTISKAKGQPREPQVYTLPPSRKKMTKNQVSLTCLVKGFYPSDIAVEWESNGQPENNYKTTPPVLKSDGSFFLYSKLTVDKSRWQQGNVFSCSVMHEALHNHYTQKSLSLSPGK
As to B2, the “% inhibition of human PAC1” value with human PAC1 receptor amounted to 60%. For the same molecule, the “% inhibition of human CGRPR” value with human CGRP receptor was 70%.

B3: iPS:327291 (bispecific antibody, human IgG1, kappa, lambda, N297G)
light 1: EIVLTQSPATLSLSPGERATLSCRASQSVGRSLHWYQQKPGQAPRLLIKYASQSLSGIPARFSGSGSGTDFTLTISSLEPEDFAVYYCHQSSRLPFTFGPGTKVDIKRTVAAPSVFIFPPSDEQLKSGTASVVCLLNNFYPREAKVQWKVDNALQSGNSQESVTEQDSKDSTYSLESTLTLSKADYEKHKVYACEVTHQGLSSPVTKSFNRGEC
heavy 1: not shown
light 2: QSVLTQPPSVSAAPGQKVTISCSGSSSNIGNNYVSWYQQLPGTAPKLLIYDNNKRPSGIPDRFSGSKSGTSTTLGITGLQTGDEADYYCGTWDSRLSAVVFGGGTKLTVLGQPKANPTVTLFPPSSEELQANKATLVCLISDFYPGAVTVAWKADGSPVKAGVETTKPSKQSNNKYAAKSYLSLTPEQWKSHRSYSCQVTHEGSTVEKTVAPTECS
heavy 2: QVQLVESGGGVVQPGRSLRLSCAASGFTFSSFGMHWVRQAPGKGLEWVAVISFDGSIKYSVDSVKGRFTISRDNSKNTLFLQMNSLRAEDTAVYYCARDRLNYYDSSGYYHYKYYGMAVWGQGTTVTVSSASTKGPSVFPLAPSSKSTSGGTAALGCLVKDYFPEPVTVSWNSGALTSGVHTFPAVLQSSGLYSLESVVTVPSSSLGTQTYICNVNHKPSNTKVDKKVEPKSCDKTHTCPPCPAPELLGGPSVFLFPPKPKDTLMISRTPEVTCVVVDVSHEDPEVKFNWYVDGVEVHNAKTKPCEEQYGSTYRCVSVLTVLHQDWLNGKEYKCKVSNKALPAPIEKTISKAKGQPREPQVYTLPPSRKKMTKNQVSLTCLVKGFYPSDIAVEWESNGQPENNYKTTPPVLKSDGSFFLYSKLTVDKSRWQQGNVFSCSVMHEALHNHYTQKSLSLSPGK
In the case of B3, the “% inhibition of human PAC1” value with human PAC1 receptor came to 89%. Also, in the experiment with human CGRP receptor, the “% inhibition of human CGRPR” value is 70%.

B4: iPS:327681 (bispecific antibody, human IgG1, kappa, N297G)
light 1: DIQMTQSPSSLSASVGDRITITCRASQSISRYLNWYQQKPGKAPKLLIYAASSLQSGIPSRFSGSGSGTDFTLTINSLQPEDFATYFCQQSYSPPFTFGEGTKVDIKRTVAAPSVFIFPPSDEQLKSGTASVVCLLNNFYPREAKVQWKVDNALQSGNSQESVTEQDSKDSTYSLESTLTLSKADYEKHKVYACEVTHQGLSSPVTKSFNRGEC
heavy 1: not shown
light 2: EIVLTQSPGTLSLSPGERATLSCRASQSVSSGYLTWYQQKPGQAPRLLIYGASSRATGIPDRFSGSGSGTDFTLTISRLEPEDFAVYYCQQYGNSLSRFGKGTKLEIKRTVAAPSVFIFPPSDEQLKSGTASVVCLLNNFYPREAKVQWKVDNALQSGNSQESVTEQDSKDSTYSLKSTLTLSKADYEKHKVYACEVTHQGLSSPVTKSFNRGEC
heavy 2: QVQLVESGGGVVQPGRSLRLSCAASGFTFSSYGMHWVRQAPGKELEWVAVIWYDGSNKYYAESVKGRFIISRDKSKNTLYLQMNSLRAEDTAVYYCARAGGIAAAGLYYYYGMDVWGQGTTVTVSSASTKGPSVFPLAPSSKSTSGGTAALGCLVKDYFPEPVTVSWNSGALTSGVHTFPAVLQSSGLYSLESVVTVPSSSLGTQTYICNVNHKPSNTKVDKKVEPKSCDKTHTCPPCPAPELLGGPSVFLFPPKPKDTLMISRTPEVTCVVVDVSHEDPEVKFNWYVDGVEVHNAKTKPCEEQYGSTYRCVSVLTVLHQDWLNGKEYKCKVSNKALPAPIEKTISKAKGQPREPQVYTLPPSRKEMTKNQVSLTCLVKGFYPSDIAVEWESNGQPENNYKTTPPVLKSDGSFFLYSKLTVDKSRWQQGNVFSCSVMHEALHNHYTQKSLSLSPGK
B4: the “% inhibition of human PAC1” value with human PAC1 receptor stood at 73%. In addition, the “% inhibition of human CGRPR” value with human CGRP receptor stood at 72%.

B5: iPS:327682 (bispecific antibody, human IgG1, kappa, N297G)
light 1: not shown
heavy 1: not shown
light 2: EIVLTQSPGTLSLSPGERATLSCRASQSVSSGYLTWYQQKPGQAPRLLIYGASSRATGIPDRFSGSGSGTDFTLTISRLEPEDFAVYYCQQYGNSLSRFGKGTKLEIKRTVAAPSVFIFPPSDEQLKSGTASVVCLLNNFYPREAKVQWKVDNALQSGNSQESVTEQDSKDSTYSLKSTLTLSKADYEKHKVYACEVTHQGLSSPVTKSFNRGEC
heavy 2: QVQLVESGGGVVQPGRSLRLSCAASGFTFSSYGMHWVRQAPGKELEWVAVIWYDGSNKYYAESVKGRFIISRDKSKNTLYLQMNSLRAEDTAVYYCARAGGIAAAGLYYYYGMDVWGQGTTVTVSSASTKGPSVFPLAPSSKSTSGGTAALGCLVKDYFPEPVTVSWNSGALTSGVHTFPAVLQSSGLYSLESVVTVPSSSLGTQTYICNVNHKPSNTKVDKKVEPKSCDKTHTCPPCPAPELLGGPSVFLFPPKPKDTLMISRTPEVTCVVVDVSHEDPEVKFNWYVDGVEVHNAKTKPCEEQYGSTYRCVSVLTVLHQDWLNGKEYKCKVSNKALPAPIEKTISKAKGQPREPQVYTLPPSRKEMTKNQVSLTCLVKGFYPSDIAVEWESNGQPENNYKTTPPVLKSDGSFFLYSKLTVDKSRWQQGNVFSCSVMHEALHNHYTQKSLSLSPGK
For B5, in the experiment with human PAC1 receptor, the “% inhibition of human PAC1” value amounted to 12%. In addition, in the experiment with human CGRP receptor, the “% inhibition of human CGRPR” value is 75%.

B6: iPS:327677 (bispecific antibody, human IgG1, kappa, N297G)
light 1: not shown
heavy 1: not shown
light 2: EIVLTQSPGTLSLSPGERATLSCRASQSVSSGYLTWYQQKPGQAPRLLIYGASSRATGIPDRFSGSGSGTDFTLTISRLEPEDFAVYYCQQYGNSLSRFGQGTKLEIKRTVAAPSVFIFPPSDEQLKSGTASVVCLLNNFYPREAKVQWKVDNALQSGNSQESVTEQDSKDSTYSLKSTLTLSKADYEKHKVYACEVTHQGLSSPVTKSFNRGEC
heavy 2: not shown
With B6, the “% inhibition of human PAC1” value with human PAC1 receptor was 43%. In addition, in the experiment with human CGRP receptor, the “% inhibition of human CGRPR” value stood at 81%.
